Results on four molecules are retold here after US20040242853A1.

Square brackets hold non-standard residues; d marks the D form. Ends that are not written are not given here. Ahx = NCCCCCC(=O)O

Series [1] has as its system GLP-1 6-aminohexanoic acid8.
In series [2] the target is human GLP-1 receptor (CHO cells stably transfected with the human GLP-1 receptor) (human) (UniProt P43220). The series is described as follows: displacement of 125I-GLP-1 from intact CHO/GLP-1R cells (Example 9).
Series [3] has as its target T1, human GLP-1 receptor (CHO cells stably transfected with the human GLP-1 receptor) (human), P43220.
T1 chain: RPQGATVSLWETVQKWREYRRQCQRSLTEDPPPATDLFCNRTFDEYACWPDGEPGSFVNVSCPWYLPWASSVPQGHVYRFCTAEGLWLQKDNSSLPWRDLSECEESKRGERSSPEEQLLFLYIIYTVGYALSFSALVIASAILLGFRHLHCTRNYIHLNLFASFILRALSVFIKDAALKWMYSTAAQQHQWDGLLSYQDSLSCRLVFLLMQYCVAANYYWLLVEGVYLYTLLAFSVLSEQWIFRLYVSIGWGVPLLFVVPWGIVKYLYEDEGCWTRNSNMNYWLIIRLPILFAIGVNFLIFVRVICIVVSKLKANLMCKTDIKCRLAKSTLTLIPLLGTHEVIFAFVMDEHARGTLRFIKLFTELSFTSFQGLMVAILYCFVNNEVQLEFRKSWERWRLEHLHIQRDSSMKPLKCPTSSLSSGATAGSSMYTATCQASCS
The description is as above.

Series [4] has as its target T1, human GLP-1 receptor (CHO cells stably …). Description: cell-based or functional assay.

Chain of Exendin (1-35) (peptide; other documents disagree on this pair) (C6EVG1 48-82): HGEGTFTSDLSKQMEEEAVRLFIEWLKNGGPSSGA

In the case of “recombinant DPPIV (dipeptidyl peptidase IV)”, the “N-terminal truncated product measured by MALDI-TOF” value in the series with GLP-1 (7-36) amide is on record as “caused a considerable increase in the amount of N-terminal truncated product (Mr=3089 gmol-1) as measured by MALDI”; in series [1], “In contrast GLP-1 Aha^8 (2 µM) appeared resistant to either treatment”.
Turning to “Exendin (1-35) (peptide; other documents disagree on this pair)”, the IC50 (usually the concentration at which inhibition is half-maximal) in series [2] came to 7 nM.
HGEGTFTSDVSSYLEGQAAKEFIAWLVKGRPSSGAPPPS (modifications not checked) [GLP-1 Gly8(7-36) Exendin(31-39)] displayed a 50% inhibitory concentration (IC50) in series [3] of 74 nM.
For H[Ahx]AEGTFTSDVSSYLEGQAAKEFIAWLVKGR (ends and bridges not checked) [GLP-1 6-aminohexanoic acid8], the intracellular cAMP production in CHO/GLP-1R cells (fold above basal) in series [4] amounted to 4.
